Test results from patent CN110305216A (WUXI ZHIKANG HONGYI BIOTECHNOLOGY CO LTD, dated 2019).

What was measured:
人TIM-4 = target: T1, 人TIM-4 (human, UniProt Q96H15 25-314, limits assumed); assay: ELISA, plate coated with human TIM-4
T1 sequence (looked up): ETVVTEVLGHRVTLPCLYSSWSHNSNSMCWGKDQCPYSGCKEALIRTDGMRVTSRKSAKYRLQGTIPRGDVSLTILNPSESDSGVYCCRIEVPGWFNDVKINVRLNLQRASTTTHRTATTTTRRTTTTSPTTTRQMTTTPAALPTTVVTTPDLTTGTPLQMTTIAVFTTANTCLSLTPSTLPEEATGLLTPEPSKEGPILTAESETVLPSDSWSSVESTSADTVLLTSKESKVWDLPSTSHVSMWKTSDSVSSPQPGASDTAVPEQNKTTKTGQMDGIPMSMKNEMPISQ

人TIM-1 = target: T2, 人TIM-1 (human, UniProt Q96D42 21-295, limits assumed); assay: ELISA, plate coated with human TIM-1
T2 sequence (looked up): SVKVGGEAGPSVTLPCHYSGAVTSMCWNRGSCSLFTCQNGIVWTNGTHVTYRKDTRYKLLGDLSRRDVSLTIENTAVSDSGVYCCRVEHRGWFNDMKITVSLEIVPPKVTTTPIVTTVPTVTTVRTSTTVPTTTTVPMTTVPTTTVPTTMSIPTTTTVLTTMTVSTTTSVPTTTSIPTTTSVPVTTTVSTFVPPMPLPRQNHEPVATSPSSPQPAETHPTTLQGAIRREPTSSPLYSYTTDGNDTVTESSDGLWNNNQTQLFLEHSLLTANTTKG

B1: W3402-2.131.17-z3 (antibody, V domains shown)
VH: QVQLQESGPGLVKPSETLSLTCTVSGFSLTNYGVGWIRQPPGKGLEWIGIMTSGGSTYYNSALRARVTINRDTSKNQFSLKLSSVTAADTAVYYCTRDGTTVETLFDYWGQGTMVTVSS
VL: DIVMTQTPLSLSVTPGQPASISCRSSQSLSDSAGITYLYWYLQKPGQSPQLLIYLASNLGSGVPDRFSGSGSGTDFTLKISRVEAEDVGVYYCMQGIHVPLTFGQGTKLEIK
notes: Humanized monoclonal antibody with a kappa light chain; also called W3402-z3; 人源化变体W3402-z3
B1: no binding (人TIM-4); no binding (人TIM-1).
